From the supplement of paper PMC9170038

Test system: MS2 coat protein
Assay: apparent KD of MS2 coat protein; designed switch direction (-1 OFF switch, 1 ON switch): -1; higher = weaker reporter binding
How it was run: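 On Illumina chips, designed RNA switches with common flanks were made by stalled E. coli RNA polymerase. Titrations with SNAP-549-labelled MS2 coat protein, doubling from 0.7 or 1.5 nM to 3 µM, were done with no input, with 200 uM small-molecule ligand, or with an oligonucleotide input. Apparent KD is the median per design over clusters, from curve fits of normalised cluster fluorescence.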

[1] = Eterna round: R95, input ligand: microRNA oligo, concentration not stated
[2] = input ligand: microRNA oligo, concentration not stated
[3] = Eterna round: R95, input ligand: FMN 200 uM
[4] = Eterna round: R95, input ligand: none

| Sequence | apparent KD of MS2 coat protein (input ligand: FMN 200 uM) [nM] | apparent KD of MS2 coat protein (input ligand: none) [nM] | apparent KD of MS2 coat protein [1] [nM] | apparent KD of MS2 coat protein [2] [nM] | apparent KD of MS2 coat protein [3] [nM] | apparent KD of MS2 coat protein [4] [nM] |
| --- | --- | --- | --- | --- | --- | --- |
| ACAUGUUGUCCAUGAUAUUACAUGAGGAUCACCCAUGUUAUUGCGAUUUUGAUGUGUAAGUUUGUUGCUCGUCUUAU [JR_STOV1_Sub062] (Eterna round: R97, puzzle: Sensor, turn-off variant 1) | 29.6 | 32.6 | – | – | – | – |
| ACAUUGCGAGGAUAUACAUGAGGAUCACCCAUGUGGUAGUGGAUACGGUAGGGCUAGUGUAGAAGGUGUUAUGA [EX3 #15] (Eterna round: R97, puzzle: Exclusion 3) | 98.8 | 132 | – | – | – | – |
| ACAUUGCUAGGAUAUCGCGGUAAGGACAUGAGGAUCACCCAUGUGGUGCCGUGGGAGGCCCGAGAAGGAGCGACCU [Maveonle] (puzzle: Exclusion 5) | – | – | 18.1 | – | – | – |
| ACCAUGUAAGGAUAUGGUGGCUGUGAACAGGCCUGAUAAAUCUAGAAGGUACAUGAGGAUCACCCAUGUGAUGA [Eternabot (L2) Solution 84] (Eterna round: R97, puzzle: Exclusion 4) | 54 | 32.7 | – | – | – | – |
| ACCCUGUGAGGAUAUUGUGAGCAGACACUUGAGUGCAAUCAUAAGAAGGUACAUGAGGAUCACCCAUGUGAAAC [Eternabot (L1) Solution 90] (Eterna round: R97, puzzle: Exclusion 4) | 30.4 | 38.7 | – | – | – | – |
| ACCUAUGAGGAGGAUAUACAGUGCGAAAGGACAGUAGAAGGCUUCACAUGAGGAUCACCCAUGUCGAUAAGCGA [EX6 #83] (Eterna round: R97, puzzle: Exclusion 6) | 30.2 | 21.5 | – | – | – | – |
| ACCUAUGAGGAGGAUAUACGGUGCGAAAGGAAGGUAGAAGGCUUCACAUGAGGAUCACCCAUGUCGAUAAGCGA [EX6 #85] (Eterna round: R97, puzzle: Exclusion 6) | 27.7 | 23.3 | – | – | – | – |
| ACCUCACAUGAGGAUCACCCAUGUUAGGAUAUCUCGGUGCCCUGCAGGCAGUGGCACCAGAGAAGGAACGUGCA [Anbearqu] (puzzle: Exclusion 1) | – | – | 17.2 | – | – | – |
| ACGACUGGAGGAUAUGCUCUGGGAGCGAUCGUAUAAGCAGUACUUGAGGAUCACCCAAGUAGAAGGUCAGCUCG [Riorus] (Eterna round: R97, puzzle: Exclusion 2) | 140 | 37.6 | – | – | – | – |
| ACGAUGACUGAAAAGUGUAAACUGACAUGAGGAUCACCCAUGUAGGAUAUGGCUACGAAAAGUAGUCAGAAGGGCAUGUCAUCA [Omei Exc(NG) 3 Av10] (Eterna round: R96, puzzle: Exclusion NG 3) | 14.3 | 17.1 | – | 13.4 | – | – |
| ACGAUGAUCGAAAAGUGUAAACUGACAUGAGGAUCACCCAUGUAGGAUAUGGCUACGAAAAGUAGUCAGAAGGGCAUGUCAUCA [Omei Exc(NG) 3 Av11] (Eterna round: R96, puzzle: Exclusion NG 3) | 51.3 | 47.9 | – | 34.6 | – | – |
| ACGCAUUGCCUUUGGUAGUGCGUAACAUGAGGAUCACCCAUGUAGGAUAUGGUAGGCUUUGCUUACCAGAAGGACAUAAUAAAU [Mat - Exclusion NG 3 - Mod of JL - D2] (Eterna round: R96, puzzle: Exclusion NG 3) | 52.7 | 28.8 | – | 25.1 | – | – |
| ACGCCACAUGAGGAUCACCCAUGUGAGGAUAUGGCCUGUUUGGCGUGUGCUGGCUCUGUCAGAAGGCGCGUGGG [salish99_ex1_r4_039] (Eterna round: R97, puzzle: Exclusion 1) | 45.4 | 42.3 | – | – | – | – |
| ACGCCUAUAGUGAGGAUAUUGCGGGUAGGUAUUUGCAAGAAGGCACUUGAGGAUCACCCAAGUGAAGAAGUUGC [Geusra] (Eterna round: R97, puzzle: Brourd's mod of Exclusion 4) | 14.7 | 15.1 | – | – | – | – |
| ACGUCCCAAGUCAGGAUAUAGGCCGGACAAAGGGACUAGAAGGGACAUGAGGAUCACCCAUGUGGGCAAAAGAC [Terarace] (puzzle: Brourd's mod of Exclusion 4) | – | – | 29.4 | – | 29.4 | 32 |
| ACUAGAUGAGGAUAUGCAUAUUUUCGUGUUCUUCUAGAUUAACAUGAGGAUCACCCAUGUAGAAGGCGUCAUUU [Exclusion 2 - 16] (puzzle: Exclusion 2) | – | – | 15.7 | – | – | – |
| ACUAGAUGAGGAUAUGCAUAUUUUCGUGUUCUUCUAGGUUAACAUGAGGAUCACCCAUGUAGAAGGCGUCUAUG [Exclusion 2 - 24] (puzzle: Exclusion 2) | – | – | 19.3 | – | – | – |

| Sequence | apparent KD of MS2 coat protein (input ligand: FMN 200 uM) [nM] | apparent KD of MS2 coat protein (input ligand: none) [nM] | apparent KD of MS2 coat protein [1] [nM] | apparent KD of MS2 coat protein [2] [nM] | apparent KD of MS2 coat protein [3] [nM] | apparent KD of MS2 coat protein [4] [nM] |
| --- | --- | --- | --- | --- | --- | --- |
| ACUAGCUUUUUGCAUUUUAGGUUUGUUGCUUCGUAUGUAACAUGAGGAUCACCCAUGUAUUACUGAUGUCGUCGUUU [JR_SV3TOV2_Sub090] (Eterna round: R96, puzzle: Sensor v3, turn-off variant 2) | 18.5 | 20.3 | – | 15.5 | – | – |
| ACUAGCUUUUUGCAUUUUAGGUUUGUUGCUUCGUAUGUAACAUGAGGAUCACCCAUGUAUUACUGAUGUCGUCGUUU [JR_SV3TOV2_Sub090] (puzzle: Sensor v3, turn-off variant 2) | – | – | 16.5 | – | 18.4 | 18.5 |
| ACUCGACAUGAGGAUCACCCAUGUGAGGAUAUGGCCUGUAUGGCGUGAGCUGAAUCAAUCAGAAGGCGCGUGGG [salish99_ex1_r4_053] (Eterna round: R97, puzzle: Exclusion 1) | 105 | 44.8 | – | – | – | – |
| ACUCGUAACUAGGAUAUCCGAAAUAAACGAGGAGGAGAAGGAGUUACAUGAGGAUCACCCAUGUGAUAUAAAGA [Edtisoed] (puzzle: Exclusion 6) | – | – | 15.3 | – | 47 | 17.6 |
| ACUGGUGCAGGAUAUACAUUCGUGCUUCGGCACGUAAGAUCACAUGAGGAUCACCCAUGUAGAAGGGCACCAGU [E2/5-D2] (Eterna round: R97, puzzle: Exclusion 2) | 642 | 81.6 | – | – | – | – |
| ACUGUAGAAGGAUAUGCUUCGACUCACAUGAGGAUCACCCAUGUCUUCGUGCAGUCGUCUGCAGAAGGUCUCCAGU [EX5 C.7] (Eterna round: R97, puzzle: Exclusion 5) | 1050 | 956 | – | – | – | – |
| ACUUACCAUGUCAGGAUAUGUACUUAGAACGCGAUGCAGAAGGGACAUGAGGAUCACCCAUGUAAUGUCUGAUA [Eternabot (L2) Solution 2] (Eterna round: R97, puzzle: Brourd's mod of Exclusion 4) | 51.6 | 21.1 | – | – | – | – |
| ACUUACUGAGGAUAUACAUAGAUUUACAUGAGGAUCACCCAUGUUCCUCUUUGUAUAAAUGUAGAAGGCAGAAGAU [Mat - Exclusion 5 - JL Mod - D59] (Eterna round: R97, puzzle: Exclusion 5) | 183 | 96.5 | – | – | – | – |
| ACUUAUUGAGGAUAUACAUUAAAAUACAUGAGGAUCACCCAUGUUCUUCAAUGUAUAUAUGUAGAAGGCAGAAGAA [JL-ex5-4.29 Malcolm mod] (Eterna round: R97, puzzle: Exclusion 5) | 57.6 | 22.2 | – | – | – | – |
| AGAAAAGACCUAGGAUAUACCCAGUGGGUAGAGGGUCAUAAUAAUAAAACAUGAGGAUCACCCAUGUAGAAGGAGGGAAAGAAG [Biriusdibe] (Eterna round: R96, puzzle: Exclusion NG 2) | 58.1 | 63.2 | – | 47.1 | – | – |
| AGAAAUGCCCAUGGCCACAAGCUUUCUGCUUGUCUUACUACAUGAGGAUCACCCAUGUAACAUGGGCUCCUGAUAAU [Enzainge] (puzzle: Sensor v3, turn-off variant 2) | – | – | 10.4 | – | 13.2 | 11.4 |
| AGAAAUGCCCAUGGCCACAAGCUUUUCGCUUGUCUUACUACAUGAGGAUCACCCAUGUAACAUGGGCUCCUGAUAAU [Resoriraqu] (puzzle: Sensor v3, turn-off variant 2) | – | – | 11 | – | 12.5 | 12 |
| AGAAGACAUGAGGAUCACCCAUGUAAGGAUAUCGAAGGUAAGAGAGGAAAGAAGUUAACGAGAAGGUACAGGUG [JR_Exclu1_Sub097] (puzzle: Exclusion 1) | – | – | 123 | – | 101 | 116 |
| AGAAGUAGAAACCGAUCCUACAUGAGGAUCACCCAUGUAGCAAGACGUGCACGCGAAGCUCGUCAGACUACCAGAAC [salish99_TOv1_r3_008] (puzzle: Sensor v3, turn-off variant 1) | – | – | 264 | – | 229 | 421 |
| AGAAGUAGUAACCGAUCCUACAUGAGGAUCACCCAUGUAGCUAGACGUGCACGCGACGCUCGUCAGACUACCAGAUG [salish99_TOv1_r3_029] (puzzle: Sensor v3, turn-off variant 1) | – | – | 324 | – | 270 | 418 |
| AGAAGUAGUAUCCGAUCCUACAUGAGGAUCACCCAUGUAGCUAGACGUGCACGCGAUGCUCGUCAGACUACCAGAUG [salish99_TOv1_r3_030] (puzzle: Sensor v3, turn-off variant 1) | – | – | 205 | – | 156 | 405 |
| AGACAGUCAGGAUAUACAUGAGGAUCACCCAUGUUGAGAUGUGAAAGGGCAGGAAUAGGUAGAAGGGACGAGAG [JR_Exclu3_Sub038] (puzzle: Exclusion 3) | – | – | 30.6 | – | – | – |
